Measurements published in US20220177583A1.

Tests used:
[1] = target: human CLDN6, endogenously expressed on cancer cell lines (human) (UniProt P56747); test: FACS, ARK2 cells, secondary antibody alone (negative control, background; column 0.3 ug)
[2] = target: human CLDN6, endogenously expressed on cancer cell lines (human) (UniProt P56747); test: FACS on ARK2 cells, secondary antibody only; number from the data table under the bars
[3] = target: human CLDN6, endogenously expressed on cancer cell lines (human) (UniProt P56747); test: FACS on OVCA429 cells, sample 1: no 1o, 2nd antibody NBP1-51902, 2o wash 2x
[4] = target: human CLDN6, endogenously expressed on cancer cell lines (human) (UniProt P56747); test: flow cytometry on UMUC4 cells (Positive Cell Line), secondary antibody alone; the same number stands under the 0.1µg and the 1µg head
[5] = target: human CLDN6 fused to GFP, expressed on engineered HEK293T cells (human) (UniProt P56747); test: FACS, 293T clone with human CLDN6, secondary antibody alone (negative control, background; column 1.5 ug Ab)
[6] = target: human CLDN6 fused to GFP, expressed on engineered HEK293T cells (human) (UniProt P56747); test: FACS, 293T clone with human CLDN6, secondary antibody alone (negative control, background; column 0.3 ug Ab)
[7] = target: human CLDN6, endogenously expressed on cancer cell lines (human) (UniProt P56747); test: FACS, ARK2 cells, secondary antibody alone (negative control, background; column 1.5 ug)
[8] = target: human CLDN6, endogenously expressed on cancer cell lines (human) (UniProt P56747); test: FACS, OVCA429 cells, secondary antibody alone (negative control, background; column 1.5 ug)
[9] = target: human CLDN6 fused to GFP, expressed on engineered HEK293T cells (human) (UniProt P56747); test: FACS on 293T CLDN6 mGFP Clone A11 cells, secondary antibody only; number from the data table under the bars
[10] = target: human CLDN6 fused to GFP, expressed on engineered HEK293T cells (human) (UniProt P56747); test: flow cytometry on HEK293T CLDN6-mGFP A11 cells (Positive Artificial OE Cell Line), secondary antibody alone; the same number stands under the 0.1µg and the 1µg head
[11] = target: T1, mouse CLDN6 fused to GFP, expressed on engineered HEK293T cells (mouse) (UniProt Q9Z262); test: FACS, 293T clone with mouse CLDN6, secondary antibody alone (negative control, background)
T1 sequence (looked up): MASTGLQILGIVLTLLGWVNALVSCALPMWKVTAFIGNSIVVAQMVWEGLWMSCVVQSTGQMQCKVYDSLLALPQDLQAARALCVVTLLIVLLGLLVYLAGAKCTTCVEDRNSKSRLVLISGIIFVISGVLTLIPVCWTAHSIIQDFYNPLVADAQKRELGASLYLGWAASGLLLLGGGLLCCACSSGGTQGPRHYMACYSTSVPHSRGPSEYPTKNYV

Chain of human CLDN6, endogenously expressed on cancer cell lines (human) (P56747 whole entry, the tested form may be a part): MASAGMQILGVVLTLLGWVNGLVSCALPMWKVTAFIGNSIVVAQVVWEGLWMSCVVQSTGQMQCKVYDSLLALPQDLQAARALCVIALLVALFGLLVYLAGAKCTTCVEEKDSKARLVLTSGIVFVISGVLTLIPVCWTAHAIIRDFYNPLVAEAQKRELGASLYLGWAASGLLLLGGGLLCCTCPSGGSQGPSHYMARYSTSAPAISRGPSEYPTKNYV

- FACS signal [1]: 1350
- Dylight 649 Signal by C6 [3]: 1210
- flow cytometry signal [4]: 1110
- FACS signal [5]: 768
- FACS signal [6]: 768
- FACS signal [7]: 1350
- FACS signal [8]: 886
- flow cytometry signal [10]: 1240
- FACS signal [11]: 1060
Substance: 2nd Ab only (secondary detection antibody alone, negative control)
- FL4H Singlets in Viable cells [2]: 9130
- FL4H Singlets in Viable cells [9]: 9420
